In experiment [1] the target is mouse RAGE VC1 domain triple mutant R216A-R217H-R218A (mouse). The experiment in a line: ELISA; methods: 200 ng mRAGE-WT or mRAGE-AHA coated on the plate, 1% BSA block, biotinylated HMGB1 50-1000 ng/ml for 2 hr, streptavidin-HRP; the legend says HMGB1 was immobilised; apparent Kd. Background: In an ELISA, binding on a coated surface is turned into a signal by an enzyme label.

The target in experiment [2] is T1, high mobility group Box 1 (HMGB1) (UniProt P63158 1-215, biotin (in the HMGB1 binding ELISA of p-0047; immobilised without a stated label in the ELISA of p-0044)).
T1 construct: HMGB1; also called biotinylated HMGB1
T1 sequence (looked up): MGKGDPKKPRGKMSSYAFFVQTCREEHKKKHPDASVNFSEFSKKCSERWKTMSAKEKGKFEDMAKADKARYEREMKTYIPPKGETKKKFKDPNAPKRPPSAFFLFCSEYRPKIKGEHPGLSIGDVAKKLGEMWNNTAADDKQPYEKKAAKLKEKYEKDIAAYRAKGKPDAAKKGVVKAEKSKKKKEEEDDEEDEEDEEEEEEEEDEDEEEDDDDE
Described as above. Particulars: both partners purified.

The target in experiment [3] is T2, mouse RAGE VC1 domain triple mutant R216A-R217H-R218A.
T2 chain: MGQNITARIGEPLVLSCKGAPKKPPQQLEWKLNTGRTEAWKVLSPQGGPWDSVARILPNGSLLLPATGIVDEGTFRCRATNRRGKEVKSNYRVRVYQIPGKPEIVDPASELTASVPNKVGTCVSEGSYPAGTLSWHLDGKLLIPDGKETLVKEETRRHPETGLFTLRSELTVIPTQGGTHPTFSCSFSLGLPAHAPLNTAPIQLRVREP
The experiment in a line: gel filtration (Superdex 200). Particulars: chain shown with the change; incubated with HS dodecasaccharide (H12); Superdex 200 (10/300 mm) gel filtration column; parent: est. 13; read off a plot. In general terms: Size exclusion chromatography separates by hydrodynamic size, large species first.

Results on 3 molecules are retold here after paper PMC8863369, “Heparan sulfate-dependent RAGE oligomerization is indispensable for pathophysiological functions of RAGE” (eLife, 2022).

Turning to “high mobility group Box 1 (HMGB1) (from UniProt P63158 1-215) (ligand)”, the Kd in experiment [1] was 0.0099 µM.

B1: wild-type mouse RAGE VC1 domain (domain or fragment, UniProt Q62151 23-231, looked up)
chain: GQNITARIGEPLVLSCKGAPKKPPQQLEWKLNTGRTEAWKVLSPQGGPWDSVARILPNGSLLLPATGIVDEGTFRCRATNRRGKEVKSNYRVRVYQIPGKPEIVDPASELTASVPNKVGTCVSEGSYPAGTLSWHLDGKLLIPDGKETLVKEETRRHPETGLFTLRSELTVIPTQGGTHPTFSCSFSLGLPRRRPLNTAPIQLRVREPG
notes: RAGE (receptor for advanced glycation end-products, Ager), mouse, V and C1 immunoglobulin domains; also called WT-mVC1; mVC1-WT; source: E. coli, purified (HiTrap SP cation exchange, SEC on Superdex 200)
Consider B1, for which the Kd in experiment [2] came to 0.0117 µM.

B2: wild-type mouse RAGE VC1 domain, Q62151 R216A; R217H; R218A (protein)
chain: MGQNITARIGEPLVLSCKGAPKKPPQQLEWKLNTGRTEAWKVLSPQGGPWDSVARILPNGSLLLPATGIVDEGTFRCRATNRRGKEVKSNYRVRVYQIPGKPEIVDPASELTASVPNKVGTCVSEGSYPAGTLSWHLDGKLLIPDGKETLVKEETRRHPETGLFTLRSELTVIPTQGGTHPTFSCSFSLGLPAHAPLNTAPIQLRVREP
Take B2: in experiment [3], the other: gel filtration elution volume of main peak in presence of H12 is 14 mL.
